Several values for one entry are separate records, joined by “and”; a condition that tells them apart may be missing. Equal entries are not always repeated.
Columns and labels:
[1] = molecular target: ExoU(30–687) (Pseudomonas aeruginosa (clinical strain, GESPA 1999 collection)) (UniProt O34208); assay: native MS; purified ExoU∶SpcU complex, 15 µM in 20 mM ammonium acetate, electrospray, positive mode, Micro-TOF-Q
[2] = molecular target: the molecule itself; assay: crystal structure; co-expressed, co-purified ExoU(30–687)∶SpcU(1–127) complex; crystals in 0.1 M KNO3, 20% PEG 3350; SAD on the selenium edge, C2 cell, 2.94 Å

Molecule	stoichiometry N (SpcU per ExoU (printed as ExoU∶SpcU)) [1]	binding result [2]
SpcU(1–127) (from UniProt O66100 1-127) (domain or fragment)	1 and 2	
SpcU(1–127) (domain or fragment, selenomethionine in the crystals (SAD on the selenium edge), SpcU, type IA T3SS chaperone of ExoU, Pseudomonas aeruginosa; full length is 1-137; stop codon introduced after residue 127; amplified from a clinical strain (GESPA 1999 collection); also called chaperone SpcU) MIDTWLAQWGLRLPSSNDATLRLQPAEGPELVMERLEGGWLFVVELGLVPSGLPLGVILQLLQVNSPFSSLAPVKLAADDAGRLVLWAEARDGVDDVDALNRLHDRLREGHSRLVPLLEPTGELVPA		binds
